According to the supplement of paper PMC10567573:

B1: MTMR15 (parent)
chain: YVKAKKSIDKDEEFAGSSPQSSKS
B2: EMD (parent)
chain: YQSKGYNDDYYEESYFTTRTYGEP

Variants of: B1
Test: protein stability index of a GFP-peptide fusion (GPS, HEK-293T) (PSI 1-6); higher = more stable
Details: c terminus: a fixed tail appended
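Note: lentivirally expressed fusions sorted by FACS into six bins by GFP to DsRed ratio, PSI derived from sequencing read proportions per bin multiplied by bin number.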

Protein stability index: each site, then its substitutions
F14: R 3.25 | I 3.59 | G 3.35 | S 3.46 | E 3.94
S18: P 3.04 | L 2.85 | G 3.26 | H 2.68
E13: S 2.78 | Y 2.71 | W 1.94 | F 2.09 | C 2.05 | T 2.7 | H 3.02 | N 2.43
K6: F 3.02 | G 3.15 | E 3.95 | I 2.67 | S 2.84 | W 2.7
Q20: M 2.92 | H 3.2 | D 3.24 | L 3 | N 2.96
S22: T 2.87 | N 2.83 | Q 2.6 | H 2.77 | L 2.77 | W 2.27 | G 2.97 | Y 2.78
D11: W 2.31 | G 2.88 | S 3.05 | N 2.87
A15: T 3.08 | Q 3.16 | L 3.05 | C 2.64 | H 3.38 | P 3.06
Y1: H 5.11 | S 5.49 | A 5.37 | M 5.01 | F 2.79
S7: I 3.01 | L 2.85 | M 3.33 | F 3.06 | Q 2.91 | G 3.11 | C 3.33
I8: E 3.42 | M 3.22 | A 3.18 | K 2.98 | C 2.83 | L 3.07 | N 3.33 | Y 2.99
K10: F 2.26 | W 2.96 | I 3.21 | L 3.05 | M 3.36 | E 3.26
K3: P 2.04 | Y 2.61 | F 3.3 | M 3.28 | V 3.85 | W 3.1
E12: P 2.68 | M 2.93 | C 2.59
S17: A 2.8 | E 3.59 | M 2.85 | Q 2.93 | W 4.48 | Y 1.92
K5: M 2.6 | N 3.62 | V 3.47 | R 2.73 | S 3.12 | T 3.31 | C 2.74 | P 2.31
A4: C 2.97 | Q 3.41 | N 2.99 | V 3.08 | P 3.19
P19: Q 3.18 | T 3.5 | L 2.54 | C 3.23 | I 2.92 | W 2.42
D9: G 2.95 | R 3.05 | T 2.91 | K 2.45 | A 2.92 | W 1.61 | H 3.27
G16: Y 2.19 | F 2.03 | M 3.21 | D 3.54 | N 2.98 | S 3.64 | W 3.45 | K 3.11
K23: P 3.94 | T 3.46 | S 3.08 | I 2.76 | W 2.58 | C 3.5 | A 3.44
S24: P 3.02 | C 3.13 | L 2.71 | E 3.55 | V 2.33
S21: A 3.23 | W 2.41 | N 3.25 | F 3.03 | H 3.24
V2: R 5.42 | I 4.23 | Q 5.09

Variants of: B2
Test: as above
Details: c terminus: a fixed tail appended

Protein stability index, by site and new letter:
R19: K 2.46 | I 2.09 | P 2.53 | D 3.08 | A 2.29 | T 2.81 | M 2.35 | Q 2.88
Y21: L 2.32 | K 2.52 | P 2.76 | W 1.96 | V 2.93 | E 3.18 | H 2.86
T20: W 1.46 | N 2.53 | G 2.6 | Q 1.86 | P 2.17 | D 2.52 | K 2.05 | R 2.1 | L 2.4 | A 2.15 | I 1.73
Y6: H 2.82 | R 2.56 | P 3.3 | E 3.76 | I 2.83 | T 3.34 | C 2.65 | L 2.24 | W 1.48
E13: P 1.74 | I 1.67 | T 2.29 | V 1.71 | G 2 | H 1.47 | S 2.16 | Q 1.87 | M 2.68 | C 1.53
D9: P 1.71 | Q 1.93 | M 1.96 | H 1.89 | F 2.44 | V 1.85 | S 1.57 | R 1.96 | E 2.06 | K 1.52
Y15: T 2.8 | F 1.69 | Q 2.91 | S 2.96 | C 2.37 | D 3.64 | R 2.75 | K 2.63 | G 2.96 | A 2.92 | P 2.35
N7: R 1.75 | E 2.87 | M 1.67 | A 2.25 | G 2.13 | D 2.62 | C 2.05 | W 3.23
S14: V 2.19 | T 2.38 | K 2.16 | W 2.29 | D 2.44 | N 2.35 | E 2.83
Y1: P 3.63 | C 3.02 | G 3.8 | W 2.61 | N 3.9 | A 3.8
G22: I 2.13 | R 2.28 | M 1.96 | N 2.46 | D 2.23 | A 2.1 | H 2.13 | E 2.76 | W 1.93
T17: Y 2.23 | F 1.85 | M 1.71 | V 2.13 | P 2.4 | C 1.96 | S 2.48 | K 2.56 | D 3.19 | E 3.02 | L 2.42
Y10: N 2.64 | D 2.85 | P 2.53 | S 2.65 | M 2.12 | C 2.47 | R 2.82 | I 2.52 | V 2.82
F16: Q 3.1 | S 2.88 | N 3.59 | Y 2.28 | T 3.14 | V 2.85 | R 2.69 | P 3.19 | M 2.91
E23: V 2.48 | G 2 | P 2.44 | N 2.42
T18: I 1.77 | W 2.02 | R 2.79 | M 2.04 | L 2.11
G5: R 1.97 | H 1.89 | L 1.82 | P 2.1 | V 2.06 | K 2.22 | W 2.92 | Q 2.48 | D 3.08
K4: I 1.98 | V 2.54 | H 1.97 | S 2.3 | F 1.69 | D 3.33 | M 2.32 | E 3.46 | G 2.12 | W 2.39 | R 2.44
D8: K 1.91 | C 2.62 | W 2.85 | R 1.8 | I 2.05 | Y 1.72 | H 1.96
E12: I 2.38 | F 2.11 | K 2.33 | Q 1.86
S3: M 2.38 | V 1.95 | E 3.25 | G 2.18 | P 2.72
Q2: I 1.93 | L 2.5 | A 2.15 | D 3.5 | Y 2.01 | H 2.03 | E 3.62 | N 3.11
P24: D 2.89 | G 2.51 | W 1.74 | C 2.48 | M 2.28 | Y 1.83 | R 2.05 | K 2.58 | N 2.15 | H 1.97 | A 2.28
Y11: S 2.8 | K 2.19 | Q 2.8 | R 2.66
